From patent US6426205 (MOUNT SINAI HOSPITAL, dated 2002)
Values belong to the binder of their own block, whether it stands above or below them.

Key:
Gal4^AD-Cdc4 isolates = target: T1, Gal4^AD-Cdc4 isolates (budding yeast, UniProt P07834 1-779, limits assumed); assay: yeast two-hybrid
T1 construct: Library clones; all contained the F-box; also called Cdc4 two hybrid isolates; full length Cdc4 in the two hybrid system
T1 sequence: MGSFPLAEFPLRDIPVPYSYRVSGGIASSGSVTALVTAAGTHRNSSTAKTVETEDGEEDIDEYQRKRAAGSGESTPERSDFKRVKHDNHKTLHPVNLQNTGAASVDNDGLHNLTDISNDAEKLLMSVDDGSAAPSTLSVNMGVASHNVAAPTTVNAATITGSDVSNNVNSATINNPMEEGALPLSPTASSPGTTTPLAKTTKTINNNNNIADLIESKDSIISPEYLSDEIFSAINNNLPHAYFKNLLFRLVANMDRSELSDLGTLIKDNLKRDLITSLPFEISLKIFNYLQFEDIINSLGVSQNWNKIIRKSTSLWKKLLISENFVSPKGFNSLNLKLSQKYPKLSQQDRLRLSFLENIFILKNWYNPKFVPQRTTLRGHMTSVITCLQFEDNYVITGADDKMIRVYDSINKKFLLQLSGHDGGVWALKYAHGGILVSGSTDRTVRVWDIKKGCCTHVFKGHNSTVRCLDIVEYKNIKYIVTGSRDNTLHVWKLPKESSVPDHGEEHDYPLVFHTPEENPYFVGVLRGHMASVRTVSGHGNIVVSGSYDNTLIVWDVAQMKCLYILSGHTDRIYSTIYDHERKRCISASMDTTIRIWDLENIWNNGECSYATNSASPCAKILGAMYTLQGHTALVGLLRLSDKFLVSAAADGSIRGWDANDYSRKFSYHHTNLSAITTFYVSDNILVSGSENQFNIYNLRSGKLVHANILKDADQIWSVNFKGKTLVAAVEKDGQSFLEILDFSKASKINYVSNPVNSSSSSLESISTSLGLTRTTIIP

Gal4^AD-Met30 isolates = target: T2, Gal4^AD-Met30 isolates (yeast, UniProt P39014 1-640, limits assumed); assay: yeast two-hybrid
T2 construct: Library clones; all contained the F-box; also called Met30 two hybrid isolates; full length Met30 in the two hybrid system
T2 sequence: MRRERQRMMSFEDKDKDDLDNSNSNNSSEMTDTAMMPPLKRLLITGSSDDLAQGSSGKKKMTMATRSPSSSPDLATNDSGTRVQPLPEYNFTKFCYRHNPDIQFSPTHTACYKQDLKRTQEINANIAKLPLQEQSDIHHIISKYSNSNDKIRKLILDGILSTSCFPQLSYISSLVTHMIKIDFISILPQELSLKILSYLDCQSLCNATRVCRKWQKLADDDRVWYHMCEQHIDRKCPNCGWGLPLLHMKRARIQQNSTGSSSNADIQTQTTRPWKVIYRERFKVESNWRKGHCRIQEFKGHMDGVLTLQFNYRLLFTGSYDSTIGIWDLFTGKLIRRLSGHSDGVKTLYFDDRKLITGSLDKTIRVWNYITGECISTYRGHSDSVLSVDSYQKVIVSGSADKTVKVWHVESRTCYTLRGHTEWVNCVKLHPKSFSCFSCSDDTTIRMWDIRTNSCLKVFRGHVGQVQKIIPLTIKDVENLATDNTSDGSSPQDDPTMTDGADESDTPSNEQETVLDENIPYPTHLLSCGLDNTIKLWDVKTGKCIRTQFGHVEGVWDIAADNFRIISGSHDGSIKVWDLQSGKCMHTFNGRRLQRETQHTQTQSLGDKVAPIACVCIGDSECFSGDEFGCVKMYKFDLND

Met30 = target: T3, Met30 (yeast, UniProt P39014 1-640); assay: anti-MYC immunoprecipitation from yeast lysate, immunoblot
T3 construct: Endogenous protein in yeast lysates, detected with anti-Met30 antibodies; also called endogenous Met30
T3 sequence: T2 sequence

Cdc4 = target: T4, Cdc4 (budding yeast, UniProt P07834 1-779); assay: as above
T4 construct: Endogenous protein in yeast lysates, detected with anti-Cdc4 antibodies; also called endogenous Cdc4
T4 sequence: T1 sequence

Grr1 = target: T5, Grr1 (budding yeast, UniProt P24814 1-1151); assay: as above
T5 construct: Endogenous protein in yeast lysates, detected with anti-Grr1 antibodies; also called endogenous Grr1
T5 sequence: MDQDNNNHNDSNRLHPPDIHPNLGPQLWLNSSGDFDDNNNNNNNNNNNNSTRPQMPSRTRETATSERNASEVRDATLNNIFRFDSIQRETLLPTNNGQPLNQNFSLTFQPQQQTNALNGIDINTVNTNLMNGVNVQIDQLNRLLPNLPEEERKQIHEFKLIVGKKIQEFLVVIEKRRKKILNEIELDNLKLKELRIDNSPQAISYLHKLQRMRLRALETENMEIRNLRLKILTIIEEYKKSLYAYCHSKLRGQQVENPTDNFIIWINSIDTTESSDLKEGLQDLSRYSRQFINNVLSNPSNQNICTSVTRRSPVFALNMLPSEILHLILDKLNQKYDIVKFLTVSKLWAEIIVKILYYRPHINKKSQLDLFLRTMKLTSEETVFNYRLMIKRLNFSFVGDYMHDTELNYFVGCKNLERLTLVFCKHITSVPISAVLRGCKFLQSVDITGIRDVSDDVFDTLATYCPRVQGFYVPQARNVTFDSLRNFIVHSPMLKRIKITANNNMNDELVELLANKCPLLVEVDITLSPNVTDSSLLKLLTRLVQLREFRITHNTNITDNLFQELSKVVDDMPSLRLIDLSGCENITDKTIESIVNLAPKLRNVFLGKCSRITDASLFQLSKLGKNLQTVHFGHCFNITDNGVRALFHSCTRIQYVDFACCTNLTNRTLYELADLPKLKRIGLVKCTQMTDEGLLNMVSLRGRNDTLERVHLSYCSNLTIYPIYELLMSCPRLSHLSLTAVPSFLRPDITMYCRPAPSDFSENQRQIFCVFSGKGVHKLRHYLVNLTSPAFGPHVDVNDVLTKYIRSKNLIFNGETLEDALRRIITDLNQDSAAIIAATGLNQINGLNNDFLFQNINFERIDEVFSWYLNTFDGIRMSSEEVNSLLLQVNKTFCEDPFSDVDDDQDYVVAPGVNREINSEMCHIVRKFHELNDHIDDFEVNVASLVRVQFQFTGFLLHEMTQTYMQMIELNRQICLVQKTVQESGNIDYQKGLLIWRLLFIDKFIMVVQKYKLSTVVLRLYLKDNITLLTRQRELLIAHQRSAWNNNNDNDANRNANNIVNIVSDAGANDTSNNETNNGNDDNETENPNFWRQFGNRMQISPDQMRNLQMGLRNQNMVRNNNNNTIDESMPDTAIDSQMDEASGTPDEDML

binding result (Gal4^AD-Cdc4 isolates): no binding
binding result (Gal4^AD-Met30 isolates): no binding
B1: Gal4^DBD-Cdc53^ΔN (other, not shown: small tags and cut ends)
chain: MALNKVLITDHIEKLENEFVVLLDARDIEKITSLYALIRRDFTLIPRMASVFENYVKKTGENEISSLLAMHKHNIMKNENANPKKLALMTAHSLSPKDYIKKLLEVHDIFSKIFNESFPDDIPLAKALDNACGAFININEFALPAGSPKSATSKTSEMLAKYSDILLKKATKPEVASDMSDEDIITIFKYLTDKDAFETHYRRLFAKRLIHGTSTSAEDEENIIQRLQAANSMEYTGKITKMFQDIRLSKILEDDFAVALKNEPDYSKAKYPDLQPFVLAENMWPFSYQEVEFKLPKELVPSHEKLKESYSQKHNGRILKWLWPLCRGELKADIGKPGRMPFNFTVTLFQMAILLLYNDADVLTLENIQEGTSLTIQHIAAAMVPFIKFKLIQQVPPGLDALVKPETQFKLSRPYKALKTNINFASGVKNDILQSLSGGGHDNHGNKLGNKRLTEDERIEKELNTERQIFLEACIVRIMKAKRNLPHTTLVNECIAQSHQRFNAKVSMVKRAIDSLIQKGYLQRGDDGESYAYLA
notes: Made by NcoI digestion and religation; also called pMT954; Cdc53 lacking the N-terminal 280 residues

binding result (Met30): no binding
binding result (Cdc4): no binding
binding result (Grr1): no binding
B2: Cdc53^Δ9-280 (MYC-tagged) (other, not shown: small tags and cut ends)
chain: MSETLPRSMALNKVLITDHIEKLENEFVVLLDARDIEKITSLYALIRRDFTLIPRMASVFENYVKKTGENEISSLLAMHKHNIMKNENANPKKLALMTAHSLSPKDYIKKLLEVHDIFSKIFNESFPDDIPLAKALDNACGAFININEFALPAGSPKSATSKTSEMLAKYSDILLKKATKPEVASDMSDEDIITIFKYLTDKDAFETHYRRLFAKRLIHGTSTSAEDEENIIQRLQAANSMEYTGKITKMFQDIRLSKILEDDFAVALKNEPDYSKAKYPDLQPFVLAENMWPFSYQEVEFKLPKELVPSHEKLKESYSQKHNGRILKWLWPLCRGELKADIGKPGRMPFNFTVTLFQMAILLLYNDADVLTLENIQEGTSLTIQHIAAAMVPFIKFKLIQQVPPGLDALVKPETQFKLSRPYKALKTNINFASGVKNDILQSLSGGGHDNHGNKLGNKRLTEDERIEKELNTERQIFLEACIVRIMKAKRNLPHTTLVNECIAQSHQRFNAKVSMVKRAIDSLIQKGYLQRGDDGESYAYLA
notes: Deletion built with natural and engineered restriction sites; also called CDC53^MΔ9-280; pMT1850
